The target of data set [1] is T1, HMGB1 (Homo sapiens, UniProt P09429).
T1 sequence (P09429 1-215): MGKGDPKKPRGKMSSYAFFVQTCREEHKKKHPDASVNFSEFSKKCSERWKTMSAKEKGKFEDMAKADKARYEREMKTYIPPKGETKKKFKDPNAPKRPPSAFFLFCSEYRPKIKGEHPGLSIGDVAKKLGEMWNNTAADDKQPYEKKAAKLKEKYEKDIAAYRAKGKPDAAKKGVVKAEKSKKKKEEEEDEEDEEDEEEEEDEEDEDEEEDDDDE
The settings on record: literature value (Mollica et al. 2007); read-out: Kd reported for glycyrrhizin; cited from earlier work.

In data set [2] the target is T2, CXCL12/HMGB1 heterocomplex (Homo sapiens, UniProt P09429).
T2 sequence (P09429 1-215): T1 sequence (P09429 1-215)
The data set can be described thus: In vitro chemotaxis (Boyden chamber): CXCL12/HMGB1-induced migration of 300.19 PreB cells expressing human CXCR4. Format: cell-based, murine. Conditions: peptides at 100 μM; CXCL12 1 nM, HMGB1 300 nM; compared with glycyrrhizin 200 μM; 300.19 PreB cells with human CXCR4. The protocol:
The 13 identified and synthesized peptides were tested in in vitro chemotaxis, to assess their efficacy as inhibitors of the CXCL12/HMGB1-induced migration, on a murine cell line expressing the human CXCR4.
All peptides, at 100 μM, were incubated with CXCL12 and HMGB1 before assessing chemotaxis, to evaluate their ability to interfere with the heterocomplex formation, and inhibit the synergistic effect of HMGB1.

For a further data set, the target named is CXCL12 (Homo sapiens, UniProt P48061). As to the kind of experiment: In vitro chemotaxis: migration induced by CXCL12 alone, 300.19 PreB cells expressing human CXCR4. The class given is cell-based, murine. Conditions: peptides at 100 μM; CXCL12 1 nM; 300.19 PreB cells with human CXCR4. The method, then: Further experiments were performed with CXCL12 alone to identify peptides affecting cell migration induced by CXCL12 alone.
Briefly, chemotaxis was performed using Boyden chambers with 5 μm pore membranes. […] 200 μM glycyrrhizin were used as positive control.

For data set [3], the target named is T1, HMGB1. The data set can be described thus: Binding affinity to HMGB1 by microscale thermophoresis (MST). Conditions: for Kd (μM), equilibrium dissociation constant: MST, Example 6 (Table 4), highest peptide concentration 500 μM. (In general: MST reads how a fluorescent partner responds to local heating, with and without ligand.)
Protocol: The protein and the peptide were incubated for 15 minutes at room temperature, to allow binding. MST analysis was performed using premium-coated capillary tubes on a NanoTemper® instrument using the following experimental settings: LED power of 5% (for fluorescence excitation), and laser power 40% (to create temperature gradient). Kd values were calculate from compound concentration-dependent changes in normalized fluorescence (Fnorm). Independent experiments were performed to calculate the Kd value. Data were analyzed by the NanoTemper® analysis software.
MST analysis was performed using premium-coated capillary tubes on a NanoTemper instrument using the following experimental settings: LED power of 5% (for fluorescence excitation), and laser power 40% (to create temperature gradient). Kd values were calculated from compound concentration-dependent changes in normalized fluorescence (Fnorm). Independent experiments were performed to calculate the Kd value. Data were analyzed by the NanoTemper analysis software.
A short description of a further data set: Solubility in PBS. The class given is physicochemical.

One may read the Kd as the free concentration of one partner at which half of the binding sites on the other are occupied at equilibrium, for simple one-to-one binding.

Like-named read-outs stand apart in the source and are kept apart here. Where no end group is shown, it is not given here.

CXCL12, sequence (P48061 22-93, species assumed): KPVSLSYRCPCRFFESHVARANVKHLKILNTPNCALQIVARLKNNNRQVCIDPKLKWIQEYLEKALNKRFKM

For `CC1(C)[C@@H](O[C@H]2O[C@H](C(=O)O)[C@@H](O)[C@H](O)[C@H]2O[C@@H]2O[C@H](C(=O)O)[C@@H](O)[C@H](O)[C@H]2O)CC[C@]2(C)[C@H]3C(=O)C=C4[C@@H]5C[C@@](C)(C(=O)O)CC[C@]5(C)CC[C@@]4(C)[C@]3(C)CC[C@@H]12` [glycyrrhizin], the Kd at HMGB1 [1] was 125 µM. For the compound YHICWYGDY (HBP12), in data set [2], the “Inhibition of the enhanced migration induced by the CXCL12/HMGB1 heterocomplex” value (from here on “Inhibition … by the CXCL12/HMGB1 heterocomplex”) is “inhibit the enhanced migration induced by the CXCL12/HMGB1 heterocomplex more than glycyrrhizin at 200 μM”. Besides, in the data set with CXCL12, the “Effect on cell migration induced by CXCL12 alone” value (shortened to “Effect on cell migration induced”) is “inhibit the migration induced by the chemokine alone”. For the compound ERWIH [Pentapept-2, ERWIH], the affinity on HMGB1 [3], expressed as Kd, was 200 ± 80 µM.

Take GYHYE [Pentapept-1]: the entries for the “Kd (μM), equilibrium dissociation constant” value on HMGB1 [3] and on HMGB1 [3] (listed as pentapept-1) were “No binding*” and “no binding was observed”, respectively. GYHYEAWIH [HBP08-A6]: the Solubility entry in “Solubility in PBS” is “poorly soluble”.

Take HWTLANWCR (HBP07): in data set [2], the “Inhibition … by the CXCL12/HMGB1 heterocomplex” value is recorded as “inhibit the enhanced migration induced by the CXCL12/HMGB1 heterocomplex more than glycyrrhizin at 200 μM”. Besides, the “Effect on cell migration induced” value with CXCL12 is listed as “do not affect CXCL12-induced cell migration”. Take WISNWILMW (HBP05): in data set [2], the “Inhibition … by the CXCL12/HMGB1 heterocomplex” value is recorded as “inhibit the enhanced migration induced by the CXCL12/HMGB1 heterocomplex more than glycyrrhizin at 200 μM”. In the data set with CXCL12, the “Effect on cell migration induced” value is on record as “inhibit the migration induced by the chemokine alone”.

(Values after patent US12098175B2, “Peptide inhibitors targeting the CXCL12/HMGB1 interaction and uses thereof” (INSTITUTE FOR RESEARCH IN BIOMEDICINE, priority 2019, dated 2024).)
